Experimental data reported in US20230374151A1.
pKd: −log10 of the molar value.

Legend:
[1] = target: STnMUC1 peptide, biotinylated; assay: SPR (Biacore T200): biotinylated STnMUC1 peptide (35-1) captured on CAP chip, scFv as analyte
[2] = target: TnMUC1 peptide (fully glycosylated), biotinylated; assay: SPR (Biacore T200): biotinylated TnMUC1 peptide batch 65-1 captured on CAP chip, scFv as analyte, 1:1 fit, average
[3] = target: TnMUC1 peptide 1 (partially glycosylated), biotinylated; assay: SPR (Biacore T200): biotinylated TnMUC1 peptide 1 (96-1) captured on CAP chip, scFv as analyte, 1:1 fit, average
[4] = target: STnMUC1 peptide, biotinylated; assay: SPR (Biacore T200): biotinylated STnMUC1 peptide (35-1) captured on CAP chip, scFv as analyte, 1:1 fit, average

Sequence of STnMUC1 peptide, biotinylated (main, as listed by the source): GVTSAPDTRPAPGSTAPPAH

pKd [1]: 7.08
pKd [2]: 7.58
koff [2]: 0.000845 s⁻¹
pKd [3]: 7.54
koff [3]: 0.000803 s⁻¹
pKd [4]: 7.08
koff [4]: 0.000282 s⁻¹
kon [4]: 3350 M⁻¹ s⁻¹
Substance: murine 5E5 scFv protein (23-P1) obtained from Creative Biolabs
